For the test, the target named is T1, Ste2 (yeast) (UniProt D6VTK4).
T1 sequence (looked up): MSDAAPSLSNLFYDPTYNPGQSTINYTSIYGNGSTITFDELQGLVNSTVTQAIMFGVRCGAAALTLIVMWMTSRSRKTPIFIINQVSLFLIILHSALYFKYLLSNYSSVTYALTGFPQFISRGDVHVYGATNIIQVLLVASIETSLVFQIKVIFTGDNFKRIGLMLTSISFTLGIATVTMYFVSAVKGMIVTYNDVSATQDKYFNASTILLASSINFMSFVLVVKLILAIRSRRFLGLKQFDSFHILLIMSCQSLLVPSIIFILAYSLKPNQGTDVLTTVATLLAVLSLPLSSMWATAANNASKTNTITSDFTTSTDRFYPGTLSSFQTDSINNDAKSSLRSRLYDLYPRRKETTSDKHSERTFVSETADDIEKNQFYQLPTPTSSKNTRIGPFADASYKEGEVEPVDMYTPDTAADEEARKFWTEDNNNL
The experiment in a line: cell-based or functional assay.

As to “α-factor (from UniProt P01149 90-102) (peptide)”, the Maximum Fold Induction, lacZ assay, Fus1p-lacZ reporter, ligand incubation 1 hr, Gα GPA1 was 22 fold; the Maximum Fold Induction, lacZ assay, Fus1p-lacZ reporter, ligand incubation 2 hrs, Gα GPA1 amounted to 123 fold; the Maximum Fold Induction, lacZ assay, Fus1p-lacZ reporter, ligand incubation 3 hrs, Gα GPA1 is 218 fold; the Maximum Fold Induction, lacZ assay, LBF system (p8op-lacZ reporter), ligand incubation 1 hr, Gα GPA1 stood at 29 fold. The Maximum Fold Induction, lacZ assay, LBF system (p8op-lacZ reporter), ligand incubation 2 hrs, Gα GPA1 was 63 fold and the Maximum Fold Induction, lacZ assay, LBF system (p8op-lacZ reporter), ligand incubation 3 hrs, Gα GPA1 stood at 36 fold.

Values taken from patent US20030170760A1.
